This note sets out measurements from the supplement of paper PMC10567573.

The labels stand for the following.
B1: TMEM120A (parent)
chain: YQSFVQFLQYYYQSGCLYRLRALG
B2: DLC1 (parent)
chain: HVTHWMGQPFNSDDRNTACHHGLV
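Also: lentivirally expressed fusions sorted by FACS into six bins by GFP to DsRed ratio, PSI derived from sequencing read proportions per bin multiplied by bin number.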

In one data set the parent is B1. Nature of the data set: protein stability index of a GFP-peptide fusion (GPS, HEK-293T) (PSI 1-6); higher = more stable. Particulars: c terminus: a fixed tail appended.
Consider YQSFVQFAQYYYQSGCLYRLRALG [L8A], for which the protein stability index was found to be 3.44.
On to YQSFVQFYQYYYQSGCLYRLRALG [L8Y], for which the protein stability index turned out to be 2.79.
Take YQSFVQFSQYYYQSGCLYRLRALG [L8S]: the protein stability index was 1.28.
For the variant YQSFVQFDQYYYQSGCLYRLRALG [L8D], the protein stability index was found to be 1.91.
Same read-out and setting: for YQSFVQFEQYYYQSGCLYRLRALG [L8E] the value was 1.66.
YQSFVQFTQYYYQSGCLYRLRALG [L8T]: the protein stability index was 1.88.
The same measure, in the same setting: to YQSFVQWLQYYYQSGCLYRLRALG [F7W] belongs 3.54; to YQSFVQFLQYYYQSGCLYRLRAYG [L23Y], 2.61.
Turning to YQSFVQFLQYYYQSGCLYRLRACG [L23C], the protein stability index stood at 3.82.
For the variant YQSFVQFLQYYYQSGTLYRLRALG [C16T], the protein stability index came out at 2.12.
For the variant YQSFVQFLQYCYQSGCLYRLRALG [Y11C], the protein stability index is 2.45.
On to YQSFVQFLQYYYQSGCLNRLRALG [Y18N], for which the protein stability index came out at 1.79.
On the same count and under the same terms, for YQSFVQFLQYYYQSGCLARLRALG [Y18A] the value was 1.84.
As to YQSFVQFLQYYYQSGCLKRLRALG [Y18K], the protein stability index was 1.86.
For the variant YQSFVQFLQYYGQSGCLYRLRALG [Y12G], the protein stability index was determined as 2.04.
Still for that read-out and setting: for YQSFVQFLQYYYQSGCLYRLRALY [G24Y] the value was 2.12.
The same measure, in the same setting: to YQSFVQFLQYYYQSGCLYRLRALT [G24T] belongs 2.27; to YQSFVQFLQYYYQTGCLYRLRALG [S14T], 3.4; to YQSFVQFLQYYYQQGCLYRLRALG [S14Q], 2.52.
For the variant YQSLVQFLQYYYQSGCLYRLRALG [F4L], the protein stability index was determined as 3.35.
On to YQSVVQFLQYYYQSGCLYRLRALG [F4V], for which the protein stability index is 4.44.
On the same count and under the same terms, for YQSDVQFLQYYYQSGCLYRLRALG [F4D] the value was 1.31; for YQSFVQFLQYYYQSGCLYRWRALG [L20W], 2.31.
Still for that read-out and setting: for YQSFVWFLQYYYQSGCLYRLRALG [Q6W] the value was 3.03; for YQSFVGFLQYYYQSGCLYRLRALG [Q6G], 3.6; for YQSFVNFLQYYYQSGCLYRLRALG [Q6N], 2.48.
Turning to YQSFVDFLQYYYQSGCLYRLRALG [Q6D], the protein stability index worked out at 3.22.
The same measure, in the same setting: to YQSFVQFLQYYYSSGCLYRLRALG [Q13S] belongs 3.55; to YQSFVQFLQYYYLSGCLYRLRALG [Q13L], 2.38; to YQSFVQFLQYYYQSGCLYRLDALG [R21D], 2.28.
Turning to YQSFVQFLQYYYQSGCFYRLRALG [L17F], the protein stability index came out at 2.63.
Same read-out and setting: to YQLFVQFLQYYYQSGCLYRLRALG [S3L] belongs 3.8; to YQSFVQFLQYYYQSGCLYKLRALG [R19K], 3.35.
For the variant YQSFVQFLCYYYQSGCLYRLRALG [Q9C], the protein stability index worked out at 2.9.
Take YQSFVQFLPYYYQSGCLYRLRALG [Q9P]: the protein stability index was 1.25.
YQSFVQFLAYYYQSGCLYRLRALG [Q9A]: the protein stability index was 2.91.
On to SQSFVQFLQYYYQSGCLYRLRALG [Y1S], for which the protein stability index was 1.86.
On the same count and under the same terms, to EQSFVQFLQYYYQSGCLYRLRALG [Y1E] belongs 1.49.
Same read-out and setting: for FQSFVQFLQYYYQSGCLYRLRALG [Y1F] the value was 3.06; for MQSFVQFLQYYYQSGCLYRLRALG [Y1M], 2.68.
As for QQSFVQFLQYYYQSGCLYRLRALG [Y1Q], the protein stability index was 2.83.
Regarding YMSFVQFLQYYYQSGCLYRLRALG [Q2M], the protein stability index worked out at 3.47.
As for YISFVQFLQYYYQSGCLYRLRALG [Q2I], the protein stability index was found to be 2.65.
Same read-out and setting: to YQSFVQFLQYYYQSGCLYRLRHLG [A22H] belongs 4.48; to YQSFVQFLQYYYQSLCLYRLRALG [G15L], 3.31.
For the variant YQSFVQFLQQYYQSGCLYRLRALG [Y10Q], the protein stability index was found to be 2.35.
Same read-out and setting: for YQSFVQFLQIYYQSGCLYRLRALG [Y10I] the value was 4.51.

In the next data set the parent is B2. The data set is described as above. Particulars: c terminus: a fixed tail appended.
In the case of HVTHWMGQPFNSDDRNTAVHHGLV [C19V], the protein stability index was 2.04.
Turning to VVTHWMGQPFNSDDRNTACHHGLV [H1V], the protein stability index amounted to 2.51.
As for SVTHWMGQPFNSDDRNTACHHGLV [H1S], the protein stability index came to 2.61.
Still for that read-out and setting: to HVTHWMGQRFNSDDRNTACHHGLV [P9R] belongs 2.21; to HVTHWMGQVFNSDDRNTACHHGLV [P9V], 1.55; to HVTHEMGQPFNSDDRNTACHHGLV [W5E], 4.26.
On to HVTHHMGQPFNSDDRNTACHHGLV [W5H], for which the protein stability index is 3.8.
Take HVTHDMGQPFNSDDRNTACHHGLV [W5D]: the protein stability index was determined as 4.27.
Turning to HVTHMMGQPFNSDDRNTACHHGLV [W5M], the protein stability index turned out to be 3.04.
Same read-out and setting: to HVTHWMGQPFNSDDRNTYCHHGLV [A18Y] belongs 2.37; to HVTHWMGQPFNSDDRNTMCHHGLV [A18M], 2.11.
The same measure, in the same setting: for HVTHWMGQPFNQDDRNTACHHGLV [S12Q] the value was 1.98; for HVTHWMGQPFNIDDRNTACHHGLV [S12I], 2.05; for HVTHWMGYPFNSDDRNTACHHGLV [Q8Y], 1.74.
On the same count and under the same terms, to HVTHWMGQPFNSDDDNTACHHGLV [R15D] belongs 2.23; to HVTHWMGQPFNSDDRATACHHGLV [N16A], 1.75; to HVTHWMGQPFNSDDRSTACHHGLV [N16S], 1.81.
For the variant HVTHWMGQPFNSDDRNTACHEGLV [H21E], the protein stability index was 2.51.
The same measure, in the same setting: for HVTHWMGQPFNSDDRNTACHHSLV [G22S] the value was 1.93; for HVTHWMGQPFNSDDRNTACHHCLV [G22C], 2.17.
Take HVTHWMGQPFNSDDRNTACHHQLV [G22Q]: the protein stability index worked out at 2.1.
Turning to HVTHWMGQPFNSDDRNTACHHILV [G22I], the protein stability index stood at 1.34.
Regarding HVTHWMGQPFHSDDRNTACHHGLV [N11H], the protein stability index is 1.8.
For the variant HVTHWMGQPFDSDDRNTACHHGLV [N11D], the protein stability index worked out at 2.58.
Still for that read-out and setting: for HVTHWMGQPFPSDDRNTACHHGLV [N11P] the value was 2.3; for HVTHWMGQPFVSDDRNTACHHGLV [N11V], 2.62.
The same measure, in the same setting: for HVLHWMGQPFNSDDRNTACHHGLV [T3L] the value was 1.59; for HVRHWMGQPFNSDDRNTACHHGLV [T3R], 1.95.
Take HVSHWMGQPFNSDDRNTACHHGLV [T3S]: the protein stability index was 1.64.
Same read-out and setting: for HVQHWMGQPFNSDDRNTACHHGLV [T3Q] the value was 1.93; for HVVHWMGQPFNSDDRNTACHHGLV [T3V], 2.78.
On the same count and under the same terms, for HVTIWMGQPFNSDDRNTACHHGLV [H4I] the value was 1.89; for HVTPWMGQPFNSDDRNTACHHGLV [H4P], 2.17; for HVTHWMGQPFNSDDRNTACLHGLV [H20L], 1.6.
Regarding HVTHWMGQPFNSDDRNTACAHGLV [H20A], the protein stability index was 2.37.
Still for that read-out and setting: to HVTHWMGQPYNSDDRNTACHHGLV [F10Y] belongs 1.92; to HVTHWMGQPMNSDDRNTACHHGLV [F10M], 2.53; to HVTHWMGQPWNSDDRNTACHHGLV [F10W], 1.93.
Consider HVTHWMGQPINSDDRNTACHHGLV [F10I], for which the protein stability index amounted to 2.04.
On the same count and under the same terms, for HVTHWMGQPVNSDDRNTACHHGLV [F10V] the value was 2.36; for HVTHWMWQPFNSDDRNTACHHGLV [G7W], 3.07.
On the same count and under the same terms, for HVTHWMAQPFNSDDRNTACHHGLV [G7A] the value was 2.35; for HCTHWMGQPFNSDDRNTACHHGLV [V2C], 2.48.
Turning to HYTHWMGQPFNSDDRNTACHHGLV [V2Y], the protein stability index amounted to 2.42.
Same read-out and setting: to HVTHWMGQPFNSDDRNTACHHGYV [L23Y] belongs 2.07; to HVTHWMGQPFNSDDRNTACHHGIV [L23I], 1.92.
For the variant HVTHWMGQPFNSDRRNTACHHGLV [D14R], the protein stability index was 2.01.
